Results published in paper PMC2729916 (Nature, 2009).

Assays:
Assay in all cases: far-Western, overlay or dot blot
E. coli UvrA = biological target: T1, E. coli UvrA (E. coli, UniProt P0A698 1-940)
T1 sequence (looked up): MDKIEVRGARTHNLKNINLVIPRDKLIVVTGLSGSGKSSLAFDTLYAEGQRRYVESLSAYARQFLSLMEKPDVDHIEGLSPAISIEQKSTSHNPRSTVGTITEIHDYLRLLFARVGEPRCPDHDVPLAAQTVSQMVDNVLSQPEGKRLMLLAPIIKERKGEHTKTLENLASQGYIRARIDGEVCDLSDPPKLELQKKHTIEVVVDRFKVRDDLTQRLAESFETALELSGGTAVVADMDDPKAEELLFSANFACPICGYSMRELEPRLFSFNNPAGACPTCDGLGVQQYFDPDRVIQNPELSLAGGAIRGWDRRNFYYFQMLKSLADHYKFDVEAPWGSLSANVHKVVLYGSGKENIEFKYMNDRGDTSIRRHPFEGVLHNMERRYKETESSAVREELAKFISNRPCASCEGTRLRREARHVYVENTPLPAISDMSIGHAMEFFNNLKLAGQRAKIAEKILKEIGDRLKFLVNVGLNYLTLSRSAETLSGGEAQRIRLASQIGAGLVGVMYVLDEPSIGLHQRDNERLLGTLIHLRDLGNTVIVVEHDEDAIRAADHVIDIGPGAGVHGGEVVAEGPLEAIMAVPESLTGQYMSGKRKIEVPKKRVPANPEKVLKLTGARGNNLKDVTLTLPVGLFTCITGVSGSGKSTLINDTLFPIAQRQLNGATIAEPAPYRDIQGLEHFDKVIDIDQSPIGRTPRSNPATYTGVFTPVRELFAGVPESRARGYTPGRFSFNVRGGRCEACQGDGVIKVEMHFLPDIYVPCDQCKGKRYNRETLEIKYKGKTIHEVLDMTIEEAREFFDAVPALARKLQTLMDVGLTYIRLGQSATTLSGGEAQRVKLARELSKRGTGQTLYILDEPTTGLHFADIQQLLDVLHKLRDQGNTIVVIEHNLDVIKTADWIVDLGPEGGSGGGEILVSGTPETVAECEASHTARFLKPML

E. coli UvrC = biological target: T2, E. coli UvrC (E. coli, UniProt P0A8G0 1-610)
T2 sequence (looked up): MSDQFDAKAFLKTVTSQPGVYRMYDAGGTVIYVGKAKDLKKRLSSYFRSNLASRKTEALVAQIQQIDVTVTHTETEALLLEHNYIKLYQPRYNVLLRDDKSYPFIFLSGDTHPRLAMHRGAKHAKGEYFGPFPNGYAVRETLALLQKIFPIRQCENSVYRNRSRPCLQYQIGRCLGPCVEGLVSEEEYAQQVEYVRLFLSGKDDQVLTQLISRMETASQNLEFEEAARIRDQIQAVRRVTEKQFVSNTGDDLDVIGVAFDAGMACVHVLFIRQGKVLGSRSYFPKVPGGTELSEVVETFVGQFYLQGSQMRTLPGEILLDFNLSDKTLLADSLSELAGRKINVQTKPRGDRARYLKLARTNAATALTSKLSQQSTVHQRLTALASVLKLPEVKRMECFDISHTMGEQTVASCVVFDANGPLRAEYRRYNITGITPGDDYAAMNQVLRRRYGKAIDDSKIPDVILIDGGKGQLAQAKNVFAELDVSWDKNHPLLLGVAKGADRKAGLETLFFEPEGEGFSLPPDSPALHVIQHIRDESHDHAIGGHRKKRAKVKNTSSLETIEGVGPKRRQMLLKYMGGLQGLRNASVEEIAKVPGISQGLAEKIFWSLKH

FLAG-UvrA (E. coli) = biological target: T3, FLAG-UvrA (E. coli) (E. coli, UniProt P0A698 1-940)
T3 sequence (looked up): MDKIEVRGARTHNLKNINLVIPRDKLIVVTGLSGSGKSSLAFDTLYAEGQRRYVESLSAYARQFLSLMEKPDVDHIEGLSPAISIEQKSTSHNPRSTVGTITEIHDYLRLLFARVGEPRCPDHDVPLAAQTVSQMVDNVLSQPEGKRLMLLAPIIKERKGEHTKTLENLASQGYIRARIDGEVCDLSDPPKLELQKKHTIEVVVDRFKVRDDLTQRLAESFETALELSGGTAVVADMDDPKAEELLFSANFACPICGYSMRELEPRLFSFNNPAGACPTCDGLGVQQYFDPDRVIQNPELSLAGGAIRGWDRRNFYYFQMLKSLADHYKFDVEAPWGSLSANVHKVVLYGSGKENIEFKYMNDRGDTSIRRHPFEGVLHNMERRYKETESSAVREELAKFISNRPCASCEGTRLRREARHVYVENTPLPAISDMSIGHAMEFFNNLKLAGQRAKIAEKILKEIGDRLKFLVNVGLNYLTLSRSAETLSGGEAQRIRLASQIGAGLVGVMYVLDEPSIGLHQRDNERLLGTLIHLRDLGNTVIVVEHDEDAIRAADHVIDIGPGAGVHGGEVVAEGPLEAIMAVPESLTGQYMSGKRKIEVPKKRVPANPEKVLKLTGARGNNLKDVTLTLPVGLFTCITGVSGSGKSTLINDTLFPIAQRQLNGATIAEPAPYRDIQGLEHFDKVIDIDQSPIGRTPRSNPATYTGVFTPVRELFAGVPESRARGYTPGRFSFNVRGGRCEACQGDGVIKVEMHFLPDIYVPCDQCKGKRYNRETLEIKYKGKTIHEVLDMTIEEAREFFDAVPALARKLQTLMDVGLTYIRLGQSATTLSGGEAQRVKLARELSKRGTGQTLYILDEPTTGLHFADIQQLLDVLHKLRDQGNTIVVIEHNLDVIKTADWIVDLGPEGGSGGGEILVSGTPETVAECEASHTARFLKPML

Row | Binder | binding result (E. coli UvrA) | binding result (E. coli UvrC) | binding result (FLAG-UvrA (E. coli))
1 | FLAG-eAtl (E. coli alkyltransferase-like protein) (natural protein, UniProt P0AFP2 1-129, looked up) MLVSCAMRLHSGVFPDYAEKLPQEEKMEKEDSFPQRVWQIVAAIPEGYVTTYGDVAKLAGSPRAARQVGGVLKRLPEGSTLPWHRVVNRHGTISLTGPDLQRQRQALLAEGVMVSGSGQIDLQRYRWNY | binds | binds | 
2 | S. pombe Atl1 (alkyltransferase-like protein 1) (natural protein) MRMDEFYTKVYDAVCEIPYGKVSTYGEIARYVGMPSYARQVGQAMKHLHPETHVPWHRVINSRGTISKRDISAGEQRQKDRLEEEGVEIYQTSLGEYKLNLPEYMWKP |  |  | binds
